Test results reported in the supplement of paper PMC9170038.

Test system: MS2 coat protein
Assay: apparent KD of MS2 coat protein; designed switch direction (-1 OFF switch, 1 ON switch): -1; higher = weaker reporter binding
Outline: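 Designed RNA switches sharing common flanks were transcribed on Illumina chips by stalled E. coli RNA polymerase. They were titrated with SNAP-549-labelled MS2 coat protein, from 0.7 or 1.5 nM doubling to 3 µM, in Tris-HCl pH 7.5 buffer with KCl, MgCl2, BSA, DTT, tRNA and Tween-20. Titrations ran without input, with 200 uM small-molecule ligand, or with an oligonucleotide input. The apparent KD of each design is the median over its clusters, after curve-fitting of normalised cluster fluorescence.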

[1] = Eterna round: R95, input ligand: microRNA oligo, concentration not stated
[2] = input ligand: microRNA oligo, concentration not stated
[3] = Eterna round: R95, input ligand: FMN 200 uM
[4] = Eterna round: R95, input ligand: none

Sequence	apparent KD of MS2 coat protein [1] [nM]	apparent KD of MS2 coat protein (input ligand: FMN 200 uM) [nM]	apparent KD of MS2 coat protein (input ligand: none) [nM]	apparent KD of MS2 coat protein [2] [nM]	apparent KD of MS2 coat protein [3] [nM]	apparent KD of MS2 coat protein [4] [nM]
CAUGUCUGAGGAUAUCGUUUUUUGUACAUGAGGAUCACCCAUGUCCUAUUUUUUAUAUUACGAGAAGGCAGUGGAU [JR_E5_Sub091] (puzzle: Exclusion 5)	34.9					
CCAACCAGAGGAUAUGCGCAUAGAUCAGACUUUGUUUCUGAACAUGAGGAUCACCCAUGUAGAAGGCUGUAACC [Ex2 #86] (Eterna round: R97, puzzle: Exclusion 2)		26	27.3			
CCAAGCUUUUUCAUUAACAACAUGAGGAUCACCCAUGUUUAAGCUAUUACUUUUGGGCUCUUUAGUGCUCGUCUUAU [JR_STOV1_Sub040] (Eterna round: R97, puzzle: Sensor, turn-off variant 1)		14.4	13.9			
CCAAUGUAAGGAUAUGACAAUGGUAUCUUCGGAUACCAUUGUCAGAAGGUACAUGAGGAUCACCCAUGUAUAAA [Ex4-3: 10] (puzzle: Exclusion 4)	17.3					
CCACGACAUGAGGAUCACCCAUGUGAGGAUAUGGCCAGUAUGGCGUGAGCUGAAUCAAUCAGAAGGCGCGUGGG [salish99_ex1_r4_056] (Eterna round: R97, puzzle: Exclusion 1)		276	339			
CCACUGUCAGGAUAUCGUGCAUAACGUUUACAUUUUAUGUGCGAGAAGGGACAUGAGGAUCACCCAUGUAAACG [Omei Ex4 A28PK2] (Eterna round: R97, puzzle: Exclusion 4)		206	808			
CCAGCGAGUGUGAGGAUAUGCUGGUCCUUGGAUCAGCAGAAGGCACAUGAGGAUCACCCAUGUGAGGACGUUGG [JL bmx4 3.31] (Eterna round: R96, puzzle: Brourd's mod of Exclusion 4)		294	31.9	27.9		
CCAGCGAGUGUGAGGAUAUGCUGGUCCUUGGAUCAGCAGAAGGCACAUGAGGAUCACCCAUGUGAGGACGUUGG [JL bmx4 3.31] (puzzle: Brourd's mod of Exclusion 4)	23.9					
CCAGCGUAUGUUAGGAUAUGCUGGUCGAAAGAUCAGCAGAAGGAACAUGAGGAUCACCCAUGUGGAAAAGUUGG [Mod of JL 25 - Jieux - Brourd's mod of Exclusion 4] (Eterna round: R97, puzzle: Brourd's mod of Exclusion 4)		184	30.4			
CCAGGCGUCUUUGCUCGUCUUAUUUGGAGAUGACUGUUAACAUGAGGAUCACCCAUGUGUGUGGGAGCGUUGCAGUC [JR_SV3TOV2_Sub021] (puzzle: Sensor v3, turn-off variant 2)	431				580	885
CCAUAGUCAGGAUAUACAUGAGGAUCACCCAUGUAAAAUUUUAAUUUAAUUUGAAGGUGUAGAAGGGACCAACC [Ex3 #30] (Eterna round: R97, puzzle: Exclusion 3)		26.3	33.2			
CCAUAUUCGAAGGAUAUGCAAUUGGAUAGAUUCGCAGAAGGUCGAACAUGAGGAUCACCCAUGUCCCUGGUGAA [Eternabot (L2) Solution 89] (Eterna round: R97, puzzle: Exclusion 6)		903	133			
CCAUGUUAGCAGGAUAUGCAAUAAAUCUUUUAUGCAGAAGGGCUUACAUGAGGAUCACCCAUGUAUUAAGUCAA [JR_E6_Sub078] (puzzle: Exclusion 6)	36				118	49.9
CCCACGUCAGGAUAUCUAAAGGUCCGAAAUAACGGGACUGCAGAGAAGGGACAUGAGGAUCACCCAUGUCCUCG [EX4 C.21] (Eterna round: R97, puzzle: Exclusion 4)		27	18			
CCCAGGGCAGGAUAUAGAGGGCUAAACAUGAGGAUCACCCAUGUGACCUCGGAACAGUUGCUAGAAGGGCCAGAUU [Maedonxe] (puzzle: Exclusion 5)	17.7				29.8	22
CCCAGUUAGGAAGGAUAUUGUACAUGAGGAUCACCCAUGUAAUAAAUGAGGAUCUCGGAUGUCUACAAGAAGGUCCGGAUAGGC [Ostracism 11 - Jieux - Exclusion NG 2] (Eterna round: R96, puzzle: Exclusion NG 2)		65.9	44.5	34.3		
CCCAGUUAUGAAGGAUAUUGUACAUGAGGAUCACCCAUGUAAUAAAUGAGGAUUUCGGGUGUCUACAAGAAGGUCAGGAUAGGC [Ostracism 14 - Jieux - Exclusion NG 2] (Eterna round: R96, puzzle: Exclusion NG 2)		82.8	60.6	43.6		
